Test results from the supplement of paper PMC10126150.
± gives the standard deviation of the averaged measurements.

The sequences below were run on ATP (assay: switch fluorescence ratio, 500 uM ATP over buffer (Cy3 cluster intensity, sum of 5 cycles each) (fold (ratio)); higher = stronger signal-on switching upon ATP binding; sequences stand for … in TCGTCGGCAGCGTCAGATGTGTATAAGAGACAGTTTTTTTTTTTTTTTTTTTTTTTTT…TC). Details: aptamer strand: ATP DNA aptamer (quencher-CACCTGGGGGAGTATTGCGGAGGAAGG + anchor), 100 nM annealed; ATP concentration: 500 uM.
In short: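 After annealing to 100 nM quencher-labelled ATP aptamer, Cy3-labelled switching-strand clusters on a modified Illumina MiSeq flow-cell were imaged in selection buffer. A second image followed after 15 min with 500 uM ATP at 22 °C, and five such buffer/ATP cycles were done, each separated by NaOH stripping and re-annealing. The fluorescence ratio, averaged per switch-domain sequence, is summed target-cycle over summed buffer-cycle Cy3 intensity per cluster, with clusters outside 100-1000 RFU excluded.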
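Also: ATP exposure 15 min at 22 °C before imaging.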

Sequence	switch fluorescence ratio
GATTGGGGTG	1 ± 0.035
GATTGGGGTT	0.978 ± 0.036
GATTGGGTCC	1 ± 0.02
GATTGGGTTT	0.999 ± 0.019
GATTGGTGCG	0.976 ± 0.015
GATTGGTTGC	0.9941 ± 0.0019
GATTGTACTC	1.022 ± 0.01
GATTGTAGCT	0.987 ± 0.023
GATTGTGGGG	0.969 ± 0.015
GATTGTTCTG	0.9804 ± 0.0049
GATTTAAATA	0.98 ± 0.018
GATTTACATA	1.01 ± 0.019
GATTTACATT	1.019 ± 0.0024
GATTTAGACT	1.04 ± 0.071
GATTTATAGG	0.972 ± 0.052
GATTTATGG	0.994 ± 0.058
GATTTCACTC	1 ± 0.026
GATTTCATCA	0.967 ± 0.057
GATTTCATGG	0.9784 ± 0.0044
GATTTGTGTC	0.955 ± 0.081
GATTTTCCGT	1.009 ± 0.009
GATTTTGCGA	0.983 ± 0.033
GATTTTTACG	1 ± 0.033
GCAAAAATCT	1.01 ± 0.046
GCAAAACA	1.3 ± 0.41

Sequence	switch fluorescence ratio
GCAAAAGGGA	1.01 ± 0.013
GCAAAAGTTT	0.99 ± 0.012
GCAAAGTGGA	0.9773 ± 0.0047
GCAAATAGTT	0.993 ± 0.024
GCAAATGAGT	1.003 ± 0.0082
GCAAATGTGT	0.969 ± 0.026
GCAACAGCAA	1.04 ± 0.015
GCAACCCTAA	1.02 ± 0.055
GCAACCGGTC	1.054 ± 0.0041
GCAACCTGAG	1.56 ± 0.14
GCAACTTATT	0.983 ± 0.022
GCAAGAGATG	1.01 ± 0.027
GCAAGAGTGA	1.04 ± 0.038
GCAAGATGGG	0.983 ± 0.015
GCAAGATTTA	1.01 ± 0.019
GCAAGCTGCA	1.016 ± 0.0087
GCAAGGGCTA	1.04 ± 0.045
GCAAGGGGGT	1.05 ± 0.053
GCAAGGGTGT	1.153 ± 0.0013
GCAAGGGTTG	1.01 ± 0.022
GCAAGTCATG	1.03 ± 0.04
GCAAGTTGGT	1 ± 0.017
GCAATGGGAA	1.1 ± 0.019
GCAATTAAAT	0.996 ± 0.036
GCAATTCCGG	1.21 ± 0.035

Sequence	switch fluorescence ratio
GCAATTTCGC	1.42 ± 0.58
GCAATTTTGT	1.03 ± 0.015
GCACAAGATG	1.0073 ± 0.00098
GCACATTTGC	0.95 ± 0.079
GCACCGAAAA	1.29 ± 0.4
GCACCGGCTA	1.16 ± 0.23
GCACGGCGTA	1.04 ± 0.038
GCACGGGGCT	1.04 ± 0.018
GCACGGGGGT	1.05 ± 0.045
GCACGTGCAG	0.9955 ± 0.0041
GCACTCAGGA	1.03 ± 0.04
GCACTCCAGG	2.61 ± 0.22
GCACTCTGAG	0.993 ± 0.029
GCACTGAAGG	1.0196 ± 0.00041
GCAGAATTTG	1.02 ± 0.031
GCAGAGGGCA	1.01 ± 0.049
GCAGAGGTGG	1.05 ± 0.037
GCAGCACGCG	1.03 ± 0.031
GCAGCCATAA	2.27 ± 0.16
GCAGCCGGGT	0.991 ± 0.022
GCAGCGGGGA	1.04 ± 0.017
GCAGCTGGCG	1.04 ± 0.017
GCAGCTGGGT	1.064 ± 0.0034
GCAGCTTGCA	0.993 ± 0.018
GCAGGAAATG	0.992 ± 0.011

Sequence	switch fluorescence ratio
GCAGGAAATT	0.973 ± 0.014
GCAGGAGGAA	0.991 ± 0.02
GCAGGAGTTG	0.978 ± 0.087
GCAGGGAGCG	0.978 ± 0.027
GCAGGGATCA	0.9813 ± 0.0013
GCAGGGATGG	0.985 ± 0.035
GCAGGGGATT	1.01 ± 0.033
GCAGGGGGGA	1.04 ± 0.05
GCAGGGGGGT	1.01 ± 0.034
GCAGGGGTTT	1.25 ± 0.48
GCAGGGTAAA	0.986 ± 0.02
GCAGGGTCTG	1.02 ± 0.083
GCAGGGTTTC	0.997 ± 0.024
GCAGGTACGC	1.05 ± 0.033
GCAGGTTGT	1.009 ± 0.0021
GCAGTAATTT	1.49 ± 0.62
GCAGTATAAT	0.9932 ± 0.0099
GCAGTATGCT	1.01 ± 0.062
GCAGTATTTG	0.99057 ± 2.4e-05
GCAGTCCGTC	1.06 ± 0.019
GCAGTGGGTA	0.978 ± 0.016
GCAGTTAATC	1.05 ± 0.026
GCAGTTGTGT	0.9941 ± 0.0058
GCAGTTGTTC	0.981 ± 0.037
GCAGTTTGGC	1.01 ± 0.057
